Test results reported in US20140050727A1 (MOCHIDA PHARMACEUTICAL, published 2014).

Experiments:
Experiment in all cases: competitive EIA on immobilized 356(CHO) with HRP-labeled F1024 antibody
[1] = target: T1, amino acid-substituted soluble human CD14 P294/296A (human, UniProt P08571 20-345)
T1 construct: mature; Expressed in COS-1, purified on a 3C10 column
T1 sequence (looked up): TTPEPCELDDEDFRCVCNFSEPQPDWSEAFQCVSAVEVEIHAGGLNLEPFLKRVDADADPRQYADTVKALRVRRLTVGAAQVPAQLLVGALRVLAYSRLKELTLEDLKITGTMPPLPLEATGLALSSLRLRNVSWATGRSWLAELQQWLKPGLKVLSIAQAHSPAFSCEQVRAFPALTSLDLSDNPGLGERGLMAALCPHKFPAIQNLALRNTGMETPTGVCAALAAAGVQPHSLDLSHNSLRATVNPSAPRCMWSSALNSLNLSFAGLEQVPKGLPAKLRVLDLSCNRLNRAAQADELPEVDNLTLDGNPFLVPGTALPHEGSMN
Method: (§1) A competitive experiment was conducted by the following procedure to confirm the reactivity of each soluble human amino acid-substituted CD14 with the F1024 antibody. […] After allowing to stand overnight at 4° C. and washing 3 times with the PBS containing 0.05% Tween 20, 200 μL/well of PBS⁻ containing 2% StabilGuard (SurModics, Inc.) was added to the well, and the solution was incubated at 37° C. for 30 minutes and stored at 4° C. In the meanwhile, amino acid-substituted soluble human CD14 that had been purified in Example 6-3) was diluted to 2 to 0.02 μg/mL with PBS⁻ containing 0.1% BSA. HRP-labeled F1024 antibody was diluted to 2 μg/mL with PBS⁻ containing 0.1% BSA, and the diluted HRP-labeled F1024 antibody was mixed with an equal amount of the human amino acid-substituted CD14 (25 μL+25 μL). Next, the solution was discarded from the wells of the plate having the soluble CD14 immobilized, and 50 μL/well of a mixed solution of amino acid-substituted CD14 and HRP-labeled F1024 was added. After the incubation at 37° C. for 2 hours, the plate was washed 5 times with PBS⁻ containing 0.05% Tween 20, and 50 μL/well of TMB solution (BioFX) was added to the well as the chromogenic substrate. The reaction was allowed to proceed at room temperature for 5 minutes, the reaction was terminated by adding 50 μL/well of 1M hydrochloric acid solution. Absorbance at 450 nm was measured with a plate spectrophotometer.

[2] = target: T2, amino acid-substituted soluble human CD14 Q295A (human, UniProt P08571 20-345)
T2 construct: mature; Expressed in COS-1, purified on a 3C10 column
T2 sequence (looked up): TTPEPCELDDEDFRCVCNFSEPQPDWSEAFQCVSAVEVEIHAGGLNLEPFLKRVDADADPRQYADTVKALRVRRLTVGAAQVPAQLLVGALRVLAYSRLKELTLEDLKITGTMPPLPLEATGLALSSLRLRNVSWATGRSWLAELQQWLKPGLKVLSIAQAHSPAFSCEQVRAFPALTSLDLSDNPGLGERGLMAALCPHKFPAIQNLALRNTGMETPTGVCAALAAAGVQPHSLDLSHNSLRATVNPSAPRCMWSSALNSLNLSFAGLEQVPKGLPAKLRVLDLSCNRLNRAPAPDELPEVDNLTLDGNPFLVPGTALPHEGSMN
Method: as §1

[3] = target: T3, amino acid-substituted soluble human CD14 P294H (human, UniProt P08571 20-345)
T3 construct: mature; Expressed in COS-1, purified on a 3C10 column
T3 sequence (looked up): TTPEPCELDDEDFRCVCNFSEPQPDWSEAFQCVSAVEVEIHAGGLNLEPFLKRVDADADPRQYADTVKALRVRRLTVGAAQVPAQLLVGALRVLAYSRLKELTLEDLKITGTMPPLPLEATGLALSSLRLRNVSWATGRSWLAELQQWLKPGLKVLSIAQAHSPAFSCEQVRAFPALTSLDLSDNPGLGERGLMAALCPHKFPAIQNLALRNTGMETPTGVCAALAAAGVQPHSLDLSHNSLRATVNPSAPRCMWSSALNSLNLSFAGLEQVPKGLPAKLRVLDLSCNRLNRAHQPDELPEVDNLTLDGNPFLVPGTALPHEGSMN
Method: as §1

- binding result [1]: no binding (tested: 2 to 0.02 µg/mL)
- binding result [2]: no binding (tested: 2 to 0.02 µg/mL)
- binding result [3]: no binding (tested: 2 to 0.02 µg/mL)
B1: F1024 antibody (antibody, V domains shown)
VH: QIQLVQSGPELKKPGESVKISCKASGYTFTDYAMNWVKQAPGNGLKWMGWINTQTGKPTYADDFKQRFVFSLETSASTAYLQINNLNIEDTATYFCTRSTFYYSSYIYGWYFDFWGPGTSVTVSS
VL: DIVMTQSPTSISISVGERVTMNCKASQNVGSNVDWYQQKTGQSPKLLIYKASNRYTGVPDRFTGSGSGTDFTFTISNMQAVDLAVYYCMQSNTNPPWTFGGGTKLELKRT
notes: also called antibody F1024; F1024-1-3 rat antibody
